Experimental data from the supplement of paper PMC12764529.
± gives the half width of the 95% confidence interval.

Key:
[1] = folding stability dG unfold from trypsin proteolysis; higher = more stable
Method in brief: (§1)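 Bayesian fitting of sequencing counts gave K50 for each design. Unfolding free energy followed by setting this against a sequence-predicted unfolded-state K50 and a shared folded-state K50, either per protease or with trypsin and chymotrypsin combined. The designs, under 80 residues and lacking cysteine, were digested in a PA-tagged cDNA display format at 11 threefold-diluted protease concentrations and without protease, and only those with AlphaFold2 dimer inter-PAE above 15 were kept.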

[2] = folding stability dG unfold (combined trypsin and chymotrypsin); higher = more stable
Method in brief: as §1

[3] = folding stability dG unfold from chymotrypsin proteolysis; higher = more stable
Method in brief: as §1

Sequence | folding stability dG unfold [1] | folding stability dG unfold [2] | folding stability dG unfold [3]
SAGGMRLVFVTETPEEAEEIARELAELFPDFELEAEVREEEVLVEVPETGEVKRRPVYVLVIELRPKSAGGS [r16_828_TrMRF] | 18 ± 0.41 kJ/mol | 18.4 ± 0.331 kJ/mol | 18.5 ± 0.247 kJ/mol
SAGGMSITITTNAPKEVLLRFIKDLAEEIGVEVDVEVTVEPLEDGPIVTAHVHIDPKEPEVPLEELFSAGGS [r16_262_TrMRF] | 3.14 ± 0.0753 kJ/mol | 2.69 ± 0.356 kJ/mol | 1.61 ± 0.31 kJ/mol
SAGGMSKEELAKKLAKELAEKLGIKEIKEIKIEKKKDKVKITIVFKENKKIIEIELKDGKIVKIKEKSAGGS [r16_171_TrROS_Hall] | 14 ± 0.628 kJ/mol | 13.6 ± 0.669 kJ/mol | 13.5 ± 0.669 kJ/mol
SAGGMSLHIPLPANNEELAEELAEELRDLYAAIPGTPGEVEVDIEPTPEGGYRLIVRFPDHVDEIPASAGGS [r16_356_TrMRF] | 5.42 ± 0.0586 kJ/mol | 5.62 ± 0.305 kJ/mol | 4.99 ± 0.46 kJ/mol
SAGGMSPELKKNKNVEKVIYNKKTGKVFVYNKKTKKLYIFTKNGKKIEIKMSKDEVEKLLKKGFKPISAGGS [r16_745_TrROS_Hall] | 8.93 ± 0.46 kJ/mol | 12 ± 0.837 kJ/mol | 13.5 ± 0.669 kJ/mol
SAGGMTEELEITTPDNYKIKITKTLNPNTTKPTYTVKIYEKKSGKVLLEKEFSSLEEAEEFIKNGYGSAGGS [r8_450_TrMRF] | 19.8 ± 0.753 kJ/mol | 19.5 ± 0.289 kJ/mol | 19.23 ± 0.176 kJ/mol
SAGGMTIEEILNMSIEEVKALAEEKGLKEVVITLPDGSKITIKVNKDGSIEVTVTNKDGSKKTFTFPSAGGS [r8_51_TrROS_Hall] | 16.3 ± 1.76 kJ/mol | 17 ± 1 kJ/mol | 16.6 ± 0.418 kJ/mol
SAGGMTIEELLKKNPELKELVKKGYVIEITYPDGKKETIKISEEDLKKILDDIKKKTNKPVEIKILPSAGGS [r16_655_TrROS_Hall] | 4.41 ± 0.339 kJ/mol | 6.43 ± 1.34 kJ/mol | 7.6 ± 0.711 kJ/mol
SAGGMTIITTTFTLKLPSNGKVVTVTKTYNLSPEEGKKEAEKIAKEIAEELKEPTEILEIKITYYPESAGGS [r16_140_JUSTAS] | 5.27 ± 0.385 kJ/mol | 7.13 ± 1.13 kJ/mol | 8.35 ± 0.356 kJ/mol
SAGGMTIKPGETVEIEVGGKKITLTRNENGELTITIEDEETGETLTITVPKDTTLEEVLKKIEELLKSAGGS [r8_158_TrROS_Hall] | 16.9 ± 0.628 kJ/mol | 15.1 ± 0.251 kJ/mol | 14.4 ± 0.268 kJ/mol
SAGGMTITIEKEGDTLKVTITIRDAATNETYTVEATLTRKEDGSLTLEIRFEDGSTKTINLKDIKLVSAGGS [r16_154_TrROS_Hall] | 12.6 ± 0.879 kJ/mol | 15.7 ± 1.97 kJ/mol | 17.2 ± 1.72 kJ/mol
SAGGMTKTILIYDEETGVLVRIEIKVNPETGEIEEIKIETETLEDGTVKMKITLKDGTEIEVEIKPLPSAGG [r13_515_TrROS_Hall] | 14.4 ± 1.92 kJ/mol | 13.6 ± 2.59 kJ/mol | 12.9 ± 1.17 kJ/mol
SAGGMTLDELRALLAAGKVTIEPVAPDRWLVTVRGPDGEEFTFEFESLEELLDALRAIPGLEVEVRPVSAGG [r13_600_TrROS_Hall] | 13.8 ± 0.418 kJ/mol | 15.5 ± 0.184 kJ/mol | 16.34 ± 0.151 kJ/mol
SAGGMTLDQLKHALRHKKMQIHEPNPNGWYVTFQNPDGKPPTFPVKSDDELRDILRDAPGFEVEVQPVSAGG [r13_600_TrROS] | -0.371 ± 0.711 kJ/mol | 2.55 ± 0.837 kJ/mol | 3.51 ± 0.669 kJ/mol
SAGGMTLEDLAGQSIEEALDLIEENGWDEVTITYPGGSKIEIKYNKDGPIEVEWENPDGNKQTFTIPSAGGS [r8_51_TrROS] | 2.69 ± 0.31 kJ/mol | 3.49 ± 0.347 kJ/mol | 3.8 ± 0.418 kJ/mol
SAGGMTLEELKEALKKLPPNVKEVKITVVEKNGKLVVVVEVNGKKLVIEFDSEEERKLAEELVKELLSSAGG [r13_287_TrROS_Hall] | 15.7 ± 1.34 kJ/mol | 14.4 ± 1 kJ/mol | 13.1 ± 0.669 kJ/mol
SAGGMTLEITFPPNVKKVRVEFDEETNEVKVEVEEVDGELVIRVEVPPGQELSEEELERLKKLLEELSAGGS [r16_359_TrROS_Hall] | 5.6 ± 0.155 kJ/mol | 6.9 ± 0.347 kJ/mol | 7.49 ± 0.301 kJ/mol
SAGGMTPEEKEEIAKKFAEELLKKLKEGDPNVKVETEVDPEKGVVKIKVINLNTKKPKTIEIPFSELASAGG [r13_354_TrMRF] | 7.34 ± 0.218 kJ/mol | 7.4 ± 0.418 kJ/mol | 7.67 ± 0.142 kJ/mol
SAGGMTPSVLSNLSEEERKEAVRDFIIEFIKKAFPNVPEDFSVEEVPVLVYDLKTGKLFEVTVHLEGKSAGG [r13_555_TrMRF] | 4.99 ± 0.347 kJ/mol | 7.24 ± 0.628 kJ/mol | 9.03 ± 0.418 kJ/mol
SAGGMTPVPVKLLSEESSSVSTLPNGETVTTTPSLAYSPLGFYVLTTTTTYPATPVTTTTSTVVPLSVSAGG [r19_320_JUSTAS] | 1.92 ± 0.172 kJ/mol | 0.934 ± 0.669 kJ/mol | -0.633 ± 0.92 kJ/mol
SAGGMVDVTITFTKPDGTPETRPIPASSLPLEELVARIRALREAGVEAEVELPPSLPEEVREALARLLSAGG [r13_251_JUSTAS] | 7.44 ± 0.163 kJ/mol | 8.2 ± 0.222 kJ/mol | 8.75 ± 0.297 kJ/mol

Sequence | folding stability dG unfold [1] | folding stability dG unfold [2] | folding stability dG unfold [3]
SAGGMVEIELVPMSEEELKKLREELPENEILIVVKEDGLVLIVRVEKSEEEAEKLAEELRKLLEELPSAGGS [r16_311_TrROS_Hall] | 8.57 ± 0.711 kJ/mol | 7.07 ± 0.962 kJ/mol | 3.91 ± 0.586 kJ/mol
SAGGMVEREFTLDGTRITITYVPSEGVILATFPDRTVTVPVPESLKDKSPEEVIELAKEFAKEYLESSAGGS [r16_215_JUSTAS] | 17.3 ± 0.669 kJ/mol | 14.3 ± 0.243 kJ/mol | 12.9 ± 0.172 kJ/mol
SAGGMVFKTKDGYLVRIEVFNKETGEKTEILVPEENIEELLKALESKPGVTEVKVEIYKLKDGKPEKLSAGG [r13_914_TrROS_Hall] | 3.61 ± 0.109 kJ/mol | 5.05 ± 0.397 kJ/mol | 5.78 ± 0.377 kJ/mol
SAGGMVFTITVRNPDGTVVELPFDVSDVTITPKNGDLYITVAGGKVLTLKTDEVLDIDPAAIAAANAASAGG [r13_925_JUSTAS] | 3.77 ± 0.218 kJ/mol | 4.74 ± 0.669 kJ/mol | 5.29 ± 0.586 kJ/mol
SAGGMVIEKDGDYEYVLLLVDSPEGFPVEVAKELLKKEFGLKEIKVLSAKPLPNGIRLVLVKNKFEKSAGGS [r16_234_TrMRF] | 3.66 ± 0.0962 kJ/mol | 5.44 ± 0.218 kJ/mol | 6.56 ± 0.259 kJ/mol
SAGGMVIVVKTPGGATSITLGNLTITQDPSTGVAVAEATPEQVEALKKDPALKDIESIEILPEEELKSAGGS [r8_493_JUSTAS] | 1.28 ± 0.1 kJ/mol | 1.92 ± 0.586 kJ/mol | 2.71 ± 0.234 kJ/mol
SAGGMVKLFTWPPGQPEEFAEKLRKLPDVVEVTIEEVDGALRIRIKLKGKDVEVTTDPAGRWSVTVVGSAGG [r13_907_JUSTAS] | 9 ± 0.142 kJ/mol | 9.53 ± 0.201 kJ/mol | 9.84 ± 0.117 kJ/mol
SAGGMVKTITKPMPLEELEKVYEEAKEAIEAGYEVIFTYPLPDGTTITIKTDYETKKIVEIKTSKPVSSAGG [r13_873_JUSTAS] | -1.44 ± 2.8 kJ/mol | 2.88 ± 1.17 kJ/mol | 4.56 ± 0.247 kJ/mol
SAGGMVLEVEFTGPLSEVEAFIEELKAKPGVELLSVEIEVKPLPGPPVRYRVKLEVKIYDPENPVLLSAGGS [r8_374_JUSTAS] | 9.45 ± 0.92 kJ/mol | 11.4 ± 1.55 kJ/mol | 12.9 ± 0.322 kJ/mol
SAGGMVLVIVSDLKPGELNEIIEKLKKEGLEVKLFLPNGEEIDADPNIEDLPEDVPVVLLVRHPDKSSAGGS [r16_31_TrMRF] | 7.81 ± 0.331 kJ/mol | 9.84 ± 0.222 kJ/mol | 10.43 ± 0.0711 kJ/mol
SAGGMVLVRIRVDMSPEERKRLEEELRKRVTEVRYLPEDEDVVEVRVSPEALAELPEERITEVELLPSAGGS [r16_328_TrROS_Hall] | 0.909 ± 0.628 kJ/mol | -0.125 ± 0.406 kJ/mol | -2.74 ± 1.34 kJ/mol
SAGGMVRITRDEDGILRVELFVEGTPEEAEEEAARLVRLLEELGFEEVRVEREPFGDGVVVTIEAKASAGGS [r8_113_TrMRF] | 10.7 ± 0.46 kJ/mol | 11.5 ± 0.318 kJ/mol | 12 ± 0.347 kJ/mol
SAGGMVRVTVVPTPGRAGEPVTLVIEHPDGTRTVPLPPDTSPEEARAAAERLAEEEGLDVAEVVFEASAGGS [r16_753_JUSTAS] | 1.02 ± 0.293 kJ/mol | 1.57 ± 0.41 kJ/mol | 1.79 ± 0.36 kJ/mol
SAGGMVTIELREVSEEEALKLAEELPPNTLLIPFPFGNLVLPVRVPDDPEVREKVAEEIRKFLEALPSAGGS [r16_311_TrMRF] | 4.74 ± 0.0962 kJ/mol | 2.8 ± 0.544 kJ/mol | 0.19 ± 0.795 kJ/mol
SAGGMVTITVSIEEGKGYAVITITIDDETLTIKIPIPNMTEEDIKAKAEEIAKELAEKYGIEEIKLESAGGS [r16_249_JUSTAS] | 12.9 ± 0.669 kJ/mol | 14 ± 1.34 kJ/mol | 14.1 ± 0.544 kJ/mol
SAGGMVTLTLPSPDGSTLTVTVEKDPNADYYRATVTTHHPDGTVTVTESVIHPDGTTTTLATTTLPASAGGS [r16_213_JUSTAS] | 8.81 ± 0.335 kJ/mol | 9.35 ± 0.502 kJ/mol | 9.3 ± 0.167 kJ/mol
SAGGMVTLTYTDLVEEDPEVKAAKARELAEELREKGYTVTDATFDPEAGTLTITVSADDATLEEIAASAGGS [r8_344_TrMRF] | 5.26 ± 0.297 kJ/mol | 5.33 ± 0.414 kJ/mol | 4.59 ± 0.272 kJ/mol
SAGGMVTVTDPNGVKHEYKLKVKITFEKPDGKPVTVEIEFDNVTVEDIVKIAKEIESKGYKLVSIEISSAGG [r13_227_TrMRF] | 15.6 ± 1.42 kJ/mol | 19.8 ± 0.92 kJ/mol | 20.5 ± 0.628 kJ/mol
SAGGMVYRVKVKITFPDGKTYYIPFPNFKSFEEILNVLKKLGFENLENIPIEVIEIEPIPEVPEELLKSAGG [r13_493_TrMRF] | 6.38 ± 0.276 kJ/mol | 11.5 ± 0.669 kJ/mol | 12.8 ± 0.46 kJ/mol
SAGGMYEIVDLLSVEPDPETGALTRTFLLRDPDSDRFLVAEVRIDPENPDRVEIRLYDEDGNLIAEFPSAGG [r13_658_TrMRF] | 14 ± 0.347 kJ/mol | 16.4 ± 0.188 kJ/mol | 17.35 ± 0.142 kJ/mol
